Results: patent US9878046B2, “Adverse side-effects associated with administration of an anti-hyaluronan agent and methods for ameliorating or preventing the side-effects” (Halozyme, Inc., priority 2010, dated 2018)
“Also recorded” adds a separate entry of the source.

Columns and labels:
[1] = system: PC3 prostate carcinoma cell line; test: Antitumor activity in PC3 prostate cancer xenograft model; format: in vivo, human (xenograft in athymic male nude mice); design: key to % TGI (% Tumor Growth Inhibition): TR = Tumor Regression
Procedure: Tumor cells from the PC3 prostate carcinoma cell line were grown to approximately 80% confluency then trypsinized, collected, washed once in HBSS (Hank's balance salt solution, Mediatech Inc.), then re-suspended in 50% Matrigel® in HBSS at 2×10^7 cells/mL on ice before inoculation into animals. Athymic male nude mice (Nu/Nu (Ncr); Taconic Farms; average weight ˜20 g) were inoculated intramuscularly (IM) with 0.05 mL of this cell suspension, peritibially, in the left hind leg (adjacent to the tibia periosteum). The implants in the animals were assessed twice a week and allowed to grow to a mean tumor volume of approximately 500 mm^3 (Day −2; Table 12). Actual tumor volumes were determined using VisualSonics Vevo 770 high-resolution ultrasound, using two perpendicular axial dimensions.
Animals were sorted randomly and grouped into 6 groups of 8 mice per group (6+2 satellite mice). Treatment groups were vehicle (API buffer), PEGPH20 (157,500 Units/kg, 4.5 mg/kg), low dose dexamethasone (1.25 mg/kg), high dose dexamethasone (5 mg/kg), PEGPH20 (4.5 mg/kg)+low dose dexamethasone (1.25 mg/kg) and PEGPH20 (4.5 mg/kg)+high dose dexamethasone (5 mg/kg). The dose and frequency of the PEGPH20 (or vehicle) intravenous injections was 157,500 Units/kg or approximately 4.5 mg/kg, every 3rd day starting on Day 0 (Days 0, 3, 6, 9, 12) with a total of 5 injections (Q3Dx5) with a dose volume of 0.1 mL. This dosing and frequency regimen was previously shown to inhibit xenograft tumor growth by 34-70%. The doses and frequency of the dexamethasone intraperitonal injections were 1.25 mg/kg at the low dose and 5 mg/kg at the high dose, once a day until Day 13 (QDx13) with a dose volume of 0.1 mL.
The tumor volumes of all mice were measured pre-treatment on Day −2 (average tumor volume of ˜500 mm^3) and on Day 1, 6, 9, 13, 16 and 20 by capturing images using the VisualSonic ultrasound system and using an ultrasound imaging software program to calculate tumor volume (Table 12).

[2] = system: 46 different cytokines, chemokines, acute-phase reactants, and other plasma inflammatory biomarkers; test: Human inflammation multi-analyte profile (MAP) of patient plasma; format: in vivo; conditions: first two patients, single IV dose 0.05 mg/kg
Procedure: The patient plasma samples also were analyzed using a human inflammation multi-analyte profile (MAP) of 46 different cytokines, chemokines, acute-phase reactants, and other plasma inflammatory biomarkers.

[3] = system: BxPC3 pancreatic cancer cell line; test: Antitumor activity in BxPC3 pancreatic cancer xenograft model; format: in vivo, human (xenograft in athymic female nude mice)
Procedure: Tumor cells from the BxPC3 pancreatic cancer cell line were grown to approximately 80% confluency, trypsinized, collected, washed once in HBSS (Hank's balance salt solution, Mediatech Inc.), and re-suspended in 50% Matrigel in HBSS at 2×10^7 cells/mL on ice before inoculation into animals. Athymic female nude mice (average weight ˜20 g) were inoculated intramuscularly (IM) with 0.05 mL of cell suspension, peritibially, in the left hind leg (adjacent to the tibia periosteum). The tumors in the animals were assessed twice a week and allowed to grow to a mean tumor volume of approximately 250 mm^3 (Day −1; Table 13). Actual tumor volumes were determined using VisualSonics Vevo 770 high-resolution ultrasound.
The animals were randomly grouped into 6 groups of 8 animals per group (6+2 satellite mice) and treated with vehicle (API buffer), PEGPH20 (157,500 Units/kg, 4.5 mg/kg), low dose dexamethasone (1.25 mg/kg), high dose dexamethasone (5 mg/kg), PEGPH20 (4.5 mg/kg)+low dose dexamethasone (1.25 mg/kg) and PEGPH20 (4.5 mg/kg)+high dose dexamethasone (5 mg/kg). The dose and frequency of the PEGPH20 (or vehicle) intravenous injections was 157,500 Units/kg or approximately 4.5 mg/kg, on Days 0, 3, 7, 10, 13 and 17 for a total of 6 injections starting on Day 0 (dose volume of 0.1 mL). The doses and frequency of the dexamethasone intraperitonal injections was 1.25 mg/kg at the low dose and 5 mg/kg at the high dose, once a day until Day 17 (QDx17) with a dose volume of 0.1 mL.
The tumor volumes of all mice were measured pre-treatment on Days −4 and −1 (mean tumor volume of ˜250 mm^3) and on Days 4, 7, 11, 14 and 17 by capturing images using the VisualSonic ultrasound system and using an ultrasound imaging software program to calculate the tumor volume (Table 13). The percent tumor growth inhibition (% TGI) was calculated as described above in Example 9A.

[4] = Tolerability / musculoskeletal response to PEGPH20 in beagle dogs; format: in vivo, beagle dog

B1: PEGPH20 (protein)
chain: LNFRAPPVIPNVPFLWAWNAPSEFCLGKFDEPLDMSLFSFIGSPRINATGQGVTIFYVDRLGYYPYIDSITGVTVNGGIPQKISLQDHLDKAKKDITFYMPVDNLGMAVIDWEEWRPTWARNWKPKDVYKNRSIELVQQQNVQLSLTEATEKAKQEFEKAGKDFLVETIKLGKLLRPNHLWGYYLFPDCYNHHYKKPGYNGSCFNVEIKRNDDLSWLWNESTALYPSIYLNTQQSPVAATLYVRNRVREAIRVSKIPDAKSPLPVFAYTRIVFTDQVLKFLSQDELVYTFGETVALGASGIVIWGTLSIMRSMKSCLLLDNYMETILNPYIINVTLAAKMCSQVLCQEQGVCIRKNWNSSDYLHLNPDNFAIQLEKGGKFTVRGKPTLEDLEQFSEKFYCSCYSTLSCKEKADVKDTDAVDVCIADGVCIDAFLKPPMETEEPQIFY
Tumor volume ([1]; Day 1, PEGPH20 4.5 mg/kg IV Q3Dx5 and/or dexamethasone 1.25 mg/kg IP QDx13): 394.38 mm^3 | % TGI (% Tumor Growth Inhibition) ([1]; Day 1, PEGPH20 4.5 mg/kg alone or + dexamethasone 1.25 mg/kg): TR | Tumor volume ([1]; Day 6, PEGPH20 4.5 mg/kg IV Q3Dx5 and/or dexamethasone 1.25 mg/kg IP QDx13): 598.39 mm^3 | % TGI (% Tumor Growth Inhibition) ([1]; Day 6, PEGPH20 4.5 mg/kg alone or + dexamethasone 1.25 mg/kg): 71% | Tumor volume ([1]; Day 9, PEGPH20 4.5 mg/kg IV Q3Dx5 and/or dexamethasone 1.25 mg/kg IP QDx13): 674.83 mm^3 | % TGI (% Tumor Growth Inhibition) ([1]; Day 9, PEGPH20 4.5 mg/kg alone or + dexamethasone 1.25 mg/kg): 64% | Tumor volume ([1]; Day 13, PEGPH20 4.5 mg/kg IV Q3Dx5 and/or dexamethasone 1.25 mg/kg IP QDx13): 827.53 mm^3 | % TGI (% Tumor Growth Inhibition) ([1]; Day 13, PEGPH20 4.5 mg/kg alone or + dexamethasone 1.25 mg/kg): 56% | Tumor volume ([1]; Day 16, PEGPH20 4.5 mg/kg IV Q3Dx5 and/or dexamethasone 1.25 mg/kg IP QDx13): 1046.73 mm^3 | % TGI (% Tumor Growth Inhibition) ([1]; Day 16, PEGPH20 4.5 mg/kg alone or + dexamethasone 1.25 mg/kg): 47% | Tumor volume ([1]; Day 20, PEGPH20 4.5 mg/kg IV Q3Dx5 and/or dexamethasone 1.25 mg/kg IP QDx13): 1310.85 mm^3 | % TGI (% Tumor Growth Inhibition) ([1]; Day 20, PEGPH20 4.5 mg/kg alone): 41% | Tumor volume ([1]; Day −2 (pre-treatment), PEGPH20 4.5 mg/kg IV Q3Dx5 and/or dexamethasone 1.25 mg/kg IP QDx13): 491.10 mm^3 | inflammation MAP findings [2]: No notable findings | Tumor volume ([3]; Day 4, PEGPH20 4.5 mg/kg IV x6 and/or dexamethasone 1.25 mg/kg IP QDx17): 350.44 mm^3 | % TGI (% Tumor Growth Inhibition) ([3]; Day 4, PEGPH20 4.5 mg/kg alone or + dexamethasone 1.25 mg/kg): 68% | Tumor volume ([3]; Day 7, PEGPH20 4.5 mg/kg IV x6 and/or dexamethasone 1.25 mg/kg IP QDx17): 394.40 mm^3 | % TGI (% Tumor Growth Inhibition) ([3]; Day 7, PEGPH20 4.5 mg/kg alone or + dexamethasone 1.25 mg/kg): 63% | Tumor volume ([3]; Day 11, PEGPH20 4.5 mg/kg IV x6 and/or dexamethasone 1.25 mg/kg IP QDx17): 473.50 mm^3 | % TGI (% Tumor Growth Inhibition) ([3]; Day 11, PEGPH20 4.5 mg/kg alone or + dexamethasone 1.25 mg/kg): 60% | Tumor volume ([3]; Day 14, PEGPH20 4.5 mg/kg IV x6 and/or dexamethasone 1.25 mg/kg IP QDx17): 596.96 mm^3 | % TGI (% Tumor Growth Inhibition) ([3]; Day 14, PEGPH20 4.5 mg/kg alone or + dexamethasone 1.25 mg/kg): 54% | Tumor volume ([3]; Day 17, PEGPH20 4.5 mg/kg IV x6 and/or dexamethasone 1.25 mg/kg IP QDx17): 790.16 mm^3 | % TGI (% Tumor Growth Inhibition) ([3]; Day 17, PEGPH20 4.5 mg/kg alone or + dexamethasone 1.25 mg/kg): 48% | Tumor volume ([3]; Day −1 (pre-treatment), PEGPH20 4.5 mg/kg IV x6 and/or dexamethasone 1.25 mg/kg IP QDx17): 275.75 mm^3 | Tumor volume ([3]; Day −4 (pre-treatment), PEGPH20 4.5 mg/kg IV x6 and/or dexamethasone 1.25 mg/kg IP QDx17): 196.87 mm^3 | reaction immediately post-dose after a break in dosing ([4]; 3040 Units/kg IV on Day 17, 26 or 33): systemic anaphylactoid-like reaction | musculoskeletal effects after re-dose ([4]; 3040 Units/kg IV on Day 59, antibody-positive dogs): No musculoskeletal effects were observed | musculoskeletal responses, repeat daily dosing ([4]; Day 7 through Day 9, 3800 to 15200 Units/kg): No musculoskeletal responses were observed | musculoskeletal responses, repeat daily dosing ([4]; Day 12, 60800 Units/kg (1.6 mg/kg), dog 288 IV): reduced mobility 2 hours after the 60800 Units/kg (1.6 mg/kg) dose with complete recovery within 10 hours post-dose | musculoskeletal responses, repeat daily dosing ([4]; Days 4 through 6, 1520 to 3040 Units/kg, IV or SC): reduced mobility (reduced ability to walk or stand), overall decreased activity, and muscle stiffness in the neck, back and extremities upon palpation; also recorded: the severity of the responses decreased from Day 4 to Day 6 | resolution of musculoskeletal responses ([4]; single dose 3040 U/kg on Day 1, three dogs): ≤ 4 days | time of musculoskeletal response post-dose ([4]; single dose 3040 U/kg, IV or SC, three dogs): ≤ 23 h | musculoskeletal observations ([4]; single dose 3040 Units/kg (0.08 mg/kg), IV or SC): reduced mobility (reduced ability to walk or stand) and tighness of muscles of the neck, back and extremities upon palpation; also recorded: reduced mobility (reduced ability to walk or stand), overall decreased activity, and muscle stiffness in the neck, back and extremities upon palpation | musculoskeletal observations on the following day ([4]; single dose of either 0.08 mg/kg or 0.3 mg/kg): reduced walking ability, difficulty standing, decreased activity and tightness of the muscles of the neck, back and extremities
